The test system of the data set is Escherichia coli TOP10. As to the kind of experiment: shrunken log2 fold change of peptide-encoding DNA abundance (4.5 h post-induction vs induction); higher = less antimicrobial activity (less host growth inhibition). The note with it: time post-induction: 4.5 h; library: site-saturation at positions 5, 18, 19, 20.
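Also: peptides expressed intracellularly from a pBAD plasmid library in pooled LB shake-flask culture, induced with 0.3% L-arabinose, DNA abundance read by NGS, three biological replicates, DESeq2 with apeglm shrinkage.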

Consider RRIRKRPPRLPRPRPRPYKRPRP, for which the “shrunken log2 fold change” value was -0.338. For RRIRDRPPRLPRPRPRPFQQPRP, the “shrunken log2 fold change” value was -0.0599.

Take RRIRCRPPRLPRPRPRPTFPPRP: the “shrunken log2 fold change” value is -0.0779.

For the sequence RRIRNRPPRLPRPRPRPDSIPRP, the “shrunken log2 fold change” value was -0.307. On to RRIRIRPPRLPRPRPRPPNHPRP, for which the “shrunken log2 fold change” value is -0.475.

For the sequence RRIRDRPPRLPRPRPRPGWCPRP, the “shrunken log2 fold change” value amounted to 0.201. Next, RRIRHRPPRLPRPRPRPHAHPRP: -0.072; RRIRNRPPRLPRPRPRPEWMPRP: 0.066; RRIRTRPPRLPRPRPRPHRKPRP: -0.0762. Next, RRIRNRPPRLPRPRPRPIARPRP: -0.0163; RRIRPRPPRLPRPRPRPKIVPRP: 0.026. Take RRIRNRPPRLPRPRPRPKYHPRP: the “shrunken log2 fold change” value is -0.442. Next, RRIRCRPPRLPRPRPRPDLAPRP: 0.102; RRIRFRPPRLPRPRPRPSVMPRP: -0.537. Next, RRIRQRPPRLPRPRPRPRLWPRP: 0.504; RRIRHRPPRLPRPRPRPYEVPRP: 0.028; RRIRQRPPRLPRPRPRPKWWPRP: -0.0687. In the case of RRIRLRPPRLPRPRPRPIRKPRP it was -0.14; in that of RRIRFRPPRLPRPRPRPFGSPRP, -0.00247.

RRIRARPPRLPRPRPRPESYPRP: the “shrunken log2 fold change” value is 1.13. Next, RRIRARPPRLPRPRPRPTNSPRP: 0.165; RRIRRRPPRLPRPRPRPFQSPRP: 0.0629; RRIRPRPPRLPRPRPRPDDCPRP: -0.0649. As for RRIRPRPPRLPRPRPRPKIQPRP, the “shrunken log2 fold change” value amounted to 0.0394. Take RRIRVRPPRLPRPRPRPGYPPRP: the “shrunken log2 fold change” value is -0.343.

RRIRLRPPRLPRPRPRPVRFPRP: the “shrunken log2 fold change” value worked out at 1.26. In the case of RRIRIRPPRLPRPRPRPFWTPRP it was -0.353; in that of RRIRHRPPRLPRPRPRPADEPRP, 0.0084.

Regarding RRIRPRPPRLPRPRPRPNKQPRP, the “shrunken log2 fold change” value amounted to 0.0754. For RRIRLRPPRLPRPRPRPLYMPRP, the “shrunken log2 fold change” value is -0.763. Next, RRIRHRPPRLPRPRPRPPDFPRP: 0.0633.

Regarding RRIRMRPPRLPRPRPRPVNYPRP, the “shrunken log2 fold change” value was -0.0244. Next, RRIRERPPRLPRPRPRPSNNPRP: -0.973; RRIRVRPPRLPRPRPRPICSPRP: -0.154; RRIRARPPRLPRPRPRPPCVPRP: 0.342. Turning to RRIRYRPPRLPRPRPRPIWPPRP, the “shrunken log2 fold change” value is -0.00922.

For the sequence RRIRYRPPRLPRPRPRPIIMPRP, the “shrunken log2 fold change” value was -0.0214.

On to RRIRTRPPRLPRPRPRPDTRPRP, for which the “shrunken log2 fold change” value is -0.186. Next, RRIRGRPPRLPRPRPRPAWRPRP: 0.934; RRIRERPPRLPRPRPRPGNLPRP: -0.17; RRIRMRPPRLPRPRPRPFWTPRP: 0.0652. Next, RRIRDRPPRLPRPRPRPMEVPRP: 0.142; RRIRERPPRLPRPRPRPYMDPRP: -0.534. As for RRIRNRPPRLPRPRPRPPLIPRP, the “shrunken log2 fold change” value is -0.193. For RRIRQRPPRLPRPRPRPNIYPRP, the “shrunken log2 fold change” value is -0.153. Next, RRIRNRPPRLPRPRPRPRNLPRP: -0.0378; RRIRHRPPRLPRPRPRPLDHPRP: -0.34; RRIRVRPPRLPRPRPRPIVPPRP: -0.349.

On to RRIRPRPPRLPRPRPRPCVIPRP, for which the “shrunken log2 fold change” value was -0.222. In the case of RRIRERPPRLPRPRPRPDCVPRP it was -0.191; in that of RRIRNRPPRLPRPRPRPWHQPRP, -0.094; in that of RRIRNRPPRLPRPRPRPIISPRP, 0.0108.

For RRIRQRPPRLPRPRPRPQHEPRP, the “shrunken log2 fold change” value was 0.119.

As for RRIRHRPPRLPRPRPRPSWRPRP, the “shrunken log2 fold change” value was -0.0493. In the case of RRIRPRPPRLPRPRPRPEPKPRP it was 2.44; in that of RRIRVRPPRLPRPRPRPQTLPRP, -0.372. On to RRIRWRPPRLPRPRPRPSTFPRP, for which the “shrunken log2 fold change” value is -0.616. In the case of RRIRARPPRLPRPRPRPRFCPRP it was 0.527; in that of RRIRLRPPRLPRPRPRPKTWPRP, 0.108. In the case of RRIRTRPPRLPRPRPRPQYIPRP it was -0.331; in that of RRIRTRPPRLPRPRPRPQHMPRP, -0.518.

Consider RRIRERPPRLPRPRPRPQGMPRP, for which the “shrunken log2 fold change” value is -0.284. In the case of RRIRMRPPRLPRPRPRPSAHPRP it was 0.423; in that of RRIRHRPPRLPRPRPRPRNEPRP, -0.588; in that of RRIRFRPPRLPRPRPRPHGWPRP, 0.309. With RRIRIRPPRLPRPRPRPKRFPRP, the “shrunken log2 fold change” value was found to be 0.276. With RRIRYRPPRLPRPRPRPVVKPRP, the “shrunken log2 fold change” value was -0.0513. Regarding RRIRCRPPRLPRPRPRPGDDPRP, the “shrunken log2 fold change” value was 0.745. In the case of RRIRHRPPRLPRPRPRPMIPPRP it was 0.132; in that of RRIRVRPPRLPRPRPRPWYAPRP, -0.299.

On to RRIRNRPPRLPRPRPRPHQDPRP, for which the “shrunken log2 fold change” value is -0.297. Next, RRIRDRPPRLPRPRPRPYSMPRP: -0.0516. For RRIRMRPPRLPRPRPRPKKSPRP, the “shrunken log2 fold change” value came to 1.18. For the sequence RRIRHRPPRLPRPRPRPDTPPRP, the “shrunken log2 fold change” value is -0.0405. In the case of RRIRRRPPRLPRPRPRPWLHPRP it was 0.333.

For RRIRTRPPRLPRPRPRPLCAPRP, the “shrunken log2 fold change” value amounted to 0.0615.

In the case of RRIRIRPPRLPRPRPRPGMEPRP, the “shrunken log2 fold change” value is -0.375. Turning to RRIRGRPPRLPRPRPRPFDEPRP, the “shrunken log2 fold change” value turned out to be 0.294. Turning to RRIRERPPRLPRPRPRPYAIPRP, the “shrunken log2 fold change” value is -0.52. RRIRGRPPRLPRPRPRPGHAPRP: the “shrunken log2 fold change” value turned out to be 0.801. Next, RRIRVRPPRLPRPRPRPTTSPRP: 0.097. For the sequence RRIRMRPPRLPRPRPRPASKPRP, the “shrunken log2 fold change” value was 0.0582. In the case of RRIRTRPPRLPRPRPRPPSHPRP it was -0.143.

For the sequence RRIRHRPPRLPRPRPRPINFPRP, the “shrunken log2 fold change” value is -0.368.

In the case of RRIRGRPPRLPRPRPRPALCPRP, the “shrunken log2 fold change” value was determined as 0.925. In the case of RRIRQRPPRLPRPRPRPKQQPRP it was -0.141; in that of RRIRIRPPRLPRPRPRPRIKPRP, -0.466. In the case of RRIRSRPPRLPRPRPRPVMTPRP it was -0.0963; in that of RRIRTRPPRLPRPRPRPCYGPRP, -0.146; in that of RRIRLRPPRLPRPRPRPAHWPRP, 0.608.

RRIRPRPPRLPRPRPRPILRPRP: the “shrunken log2 fold change” value is -0.0705.

Consider RRIRHRPPRLPRPRPRPWSRPRP, for which the “shrunken log2 fold change” value is 0.0245.

With RRIRYRPPRLPRPRPRPVTQPRP, the “shrunken log2 fold change” value amounted to 3.05.

Take RRIRQRPPRLPRPRPRPPKNPRP: the “shrunken log2 fold change” value stood at 0.29. With RRIRERPPRLPRPRPRPVMKPRP, the “shrunken log2 fold change” value is -0.236. Take RRIRYRPPRLPRPRPRPNEKPRP: the “shrunken log2 fold change” value was -0.0256. In the case of RRIRARPPRLPRPRPRPHEEPRP it was 0.793.

Take RRIRTRPPRLPRPRPRPDSFPRP: the “shrunken log2 fold change” value is 0.033. Next, RRIRARPPRLPRPRPRPPYNPRP: -0.399. Regarding RRIRSRPPRLPRPRPRPENDPRP, the “shrunken log2 fold change” value was -0.0386. Take RRIRERPPRLPRPRPRPEHCPRP: the “shrunken log2 fold change” value is -0.014.

Take RRIRIRPPRLPRPRPRPLMRPRP: the “shrunken log2 fold change” value came to 0.466.

Turning to RRIRRRPPRLPRPRPRPQFFPRP, the “shrunken log2 fold change” value was -0.259. In the case of RRIRGRPPRLPRPRPRPWTSPRP it was 0.0439; in that of RRIRFRPPRLPRPRPRPIEMPRP, -0.245; in that of RRIRCRPPRLPRPRPRPECCPRP, 0.401. In the case of RRIRYRPPRLPRPRPRPGHDPRP it was -0.0736; in that of RRIRARPPRLPRPRPRPRFSPRP, 0.308. In the case of RRIRSRPPRLPRPRPRPHNTPRP it was -0.337; in that of RRIRHRPPRLPRPRPRPGRHPRP, -0.0683; in that of RRIRLRPPRLPRPRPRPNLVPRP, -0.283. For the sequence RRIRVRPPRLPRPRPRPMCQPRP, the “shrunken log2 fold change” value was -0.0733. Next, RRIRGRPPRLPRPRPRPPWKPRP: 0.435. In the case of RRIRKRPPRLPRPRPRPRRGPRP it was 0.799. In the case of RRIRKRPPRLPRPRPRPWFIPRP it was -0.131; in that of RRIRQRPPRLPRPRPRPPQEPRP, -0.00749.

Consider RRIRRRPPRLPRPRPRPFGEPRP, for which the “shrunken log2 fold change” value came out at 0.412. Next, RRIRLRPPRLPRPRPRPMWFPRP: 0.106. Next, RRIRARPPRLPRPRPRPWDHPRP: -0.00959; RRIRNRPPRLPRPRPRPPEMPRP: 0.0979. Next, RRIRCRPPRLPRPRPRPHWMPRP: -0.371. In the case of RRIRGRPPRLPRPRPRPMDEPRP, the “shrunken log2 fold change” value came to 0.237. In the case of RRIRARPPRLPRPRPRPTDTPRP it was 0.535. In the case of RRIRMRPPRLPRPRPRPVHLPRP it was -0.0129; in that of RRIRGRPPRLPRPRPRPRFHPRP, 0.0803.

(Values after the supplement of paper PMC9112550, “Optimization of the antimicrobial peptide Bac7 by deep mutational scanning” (BMC Biology, 2022).)
